Test results as given in patent US20180155451A1 (published 2018).

T1: FcγRIIb extracellular domain with C-terminal His tag (human, UniProt P31994 43-217)
T1 construct: extracellular domain; expressed in FreeStyle293 cells; analyte in the Biacore assay; also called FcgRIIb; 2b; not shown: His tag at the C terminus
T1 sequence (looked up): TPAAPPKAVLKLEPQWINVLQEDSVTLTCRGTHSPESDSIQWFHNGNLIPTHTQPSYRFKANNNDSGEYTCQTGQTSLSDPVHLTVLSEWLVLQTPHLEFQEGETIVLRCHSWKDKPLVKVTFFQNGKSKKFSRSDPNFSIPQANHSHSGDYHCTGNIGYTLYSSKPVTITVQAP

B1: GpH7-A5/GpH7-B3 variant L235_20W/GpL16-k0 (antibody, human IgG1, kappa)
heavy 1: not shown
heavy 2: not shown
light: DIVMTQSPLSLPVTPGEPASISCQASESLVHSNRNTYLHWYLQKPGQSPQLLIYKVSNRFSGVPDRFSGSGSGTDFTLKISRVEAEDVGVYYCSQNTHVPPTFGQGTKVEIERTVAAPSVFIFPPSDEQLKSGTASVVCLLNNFYPREAKVQWKVDNALQSGNSQESVTEQDSKDSTYSLSSTLTLSKADYEKHKVYACEVTHQGLSSPVTKSFNRGEC
notes: heterodimerized; mutation in the B3 H chain only; also called He Ab L235_20W
B2: GpH7-A5/GpH7-B3 variant K334_10E/GpL16-k0 (antibody, human IgG1, kappa)
heavy 1: not shown
heavy 2: not shown
light: B1 light
notes: heterodimerized; mutation in the B3 H chain only; also called He Ab K334_10E
B3: GpH7-A5/GpH7-B3 variant K326_16H/GpL16-k0 (antibody, human IgG1, kappa)
heavy 1: not shown
heavy 2: not shown
light: B1 light
notes: heterodimerized; mutation in the B3 H chain only; also called He Ab K326_16H
B4: GpH7-A5/GpH7-B3 variant T335_15Y/GpL16-k0 (antibody, human IgG1, kappa)
heavy 1: not shown
heavy 2: not shown
light: B1 light
notes: heterodimerized; mutation in the B3 H chain only; also called He Ab T335_15Y
B5: GpH7-A5/GpH7-B3 variant P238_04F/GpL16-k0 (antibody, human IgG1, kappa)
heavy 1: not shown
heavy 2: not shown
light: B1 light
notes: heterodimerized; mutation in the B3 H chain only; also called He Ab P238_04F
B6: GpH7-A5/GpH7-B3 variant V266_06M/GpL16-k0 (antibody, human IgG1, kappa)
heavy 1: not shown
heavy 2: not shown
light: B1 light
notes: heterodimerized; mutation in the B3 H chain only; also called He Ab V266_06M
B7: GpH7-A5/GpH7-B3 variant I332_15Y/GpL16-k0 (antibody, human IgG1, kappa)
heavy 1: not shown
heavy 2: not shown
light: B1 light
notes: heterodimerized; mutation in the B3 H chain only; also called He Ab I332_15Y
B8: GpH7-A5/GpH7-B3 variant I336_08L/GpL16-k0 (antibody, human IgG1, kappa)
heavy 1: not shown
heavy 2: not shown
light: B1 light
notes: heterodimerized; mutation in the B3 H chain only; also called He Ab I336_08L
B9: GpH7-A5/GpH7-B3 variant K326_19Q/GpL16-k0 (antibody, human IgG1, kappa)
heavy 1: not shown
heavy 2: not shown
light: B1 light
notes: heterodimerized; mutation in the B3 H chain only; label printed K326_190, read as K326_19Q; also called He Ab K326_19Q
B10: GpH7-A5/GpH7-B3 variant K326_08L/GpL16-k0 (antibody, human IgG1, kappa)
heavy 1: not shown
heavy 2: not shown
light: B1 light
notes: heterodimerized; mutation in the B3 H chain only; also called He Ab K326_08L
B11: GpH7-A5/GpH7-B3 variant K334_03V/GpL16-k0 (antibody, human IgG1, kappa)
heavy 1: not shown
heavy 2: not shown
light: B1 light
notes: heterodimerized; mutation in the B3 H chain only; also called He Ab K334_03V
B12: GpH7-A5/GpH7-B3 variant S267_06M/GpL16-k0 (antibody, human IgG1, kappa)
heavy 1: not shown
heavy 2: not shown
light: B1 light
notes: heterodimerized; mutation in the B3 H chain only; also called He Ab S267_06M
B13: GpH7-A5/GpH7-B3 variant K334_14T/GpL16-k0 (antibody, human IgG1, kappa)
heavy 1: not shown
heavy 2: not shown
light: B1 light
notes: heterodimerized; mutation in the B3 H chain only; also called He Ab K334_14T
B14: GpH7-A5/GpH7-B3 variant K326_06M/GpL16-k0 (antibody, human IgG1, kappa)
heavy 1: not shown
heavy 2: not shown
light: B1 light
notes: heterodimerized; mutation in the B3 H chain only; also called He Ab K326_06M
B15: GpH7-A5/GpH7-B3 variant L328_02A/GpL16-k0 (antibody, human IgG1, kappa)
heavy 1: not shown
heavy 2: not shown
light: B1 light
notes: heterodimerized; mutation in the B3 H chain only; also called He Ab L328_02A
B16: GpH7-A5/GpH7-B3 variant S267_19Q/GpL16-k0 (antibody, human IgG1, kappa)
heavy 1: not shown
heavy 2: not shown
light: B1 light
notes: heterodimerized; mutation in the B3 H chain only; also called He Ab S267_19Q
B17: GpH7-A5/GpH7-B3 variant T335_07I/GpL16-k0 (antibody, human IgG1, kappa)
heavy 1: not shown
heavy 2: not shown
light: B1 light
notes: heterodimerized; mutation in the B3 H chain only; also called He Ab T335_07I
B18: GpH7-B3 variant K334_01G/GpL16-k0 (antibody, human IgG1, kappa)
heavy: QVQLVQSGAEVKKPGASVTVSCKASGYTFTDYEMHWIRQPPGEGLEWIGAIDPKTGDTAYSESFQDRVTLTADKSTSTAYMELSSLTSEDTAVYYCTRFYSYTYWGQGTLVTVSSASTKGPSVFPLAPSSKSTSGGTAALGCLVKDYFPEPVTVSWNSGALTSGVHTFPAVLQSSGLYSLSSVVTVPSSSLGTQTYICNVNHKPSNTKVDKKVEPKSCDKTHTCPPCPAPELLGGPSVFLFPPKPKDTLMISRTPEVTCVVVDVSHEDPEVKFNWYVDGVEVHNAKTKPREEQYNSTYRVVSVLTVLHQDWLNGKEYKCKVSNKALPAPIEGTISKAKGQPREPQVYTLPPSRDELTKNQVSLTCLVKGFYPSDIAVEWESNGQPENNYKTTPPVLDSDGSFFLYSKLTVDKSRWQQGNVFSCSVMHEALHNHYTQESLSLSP
light: B1 light
notes: homodimerized IgG1, mutation in both H chains; also called Ho Ab
B19: GpH7-B3 variant H268_10E/GpL16-k0 (antibody, human IgG1, kappa)
heavy: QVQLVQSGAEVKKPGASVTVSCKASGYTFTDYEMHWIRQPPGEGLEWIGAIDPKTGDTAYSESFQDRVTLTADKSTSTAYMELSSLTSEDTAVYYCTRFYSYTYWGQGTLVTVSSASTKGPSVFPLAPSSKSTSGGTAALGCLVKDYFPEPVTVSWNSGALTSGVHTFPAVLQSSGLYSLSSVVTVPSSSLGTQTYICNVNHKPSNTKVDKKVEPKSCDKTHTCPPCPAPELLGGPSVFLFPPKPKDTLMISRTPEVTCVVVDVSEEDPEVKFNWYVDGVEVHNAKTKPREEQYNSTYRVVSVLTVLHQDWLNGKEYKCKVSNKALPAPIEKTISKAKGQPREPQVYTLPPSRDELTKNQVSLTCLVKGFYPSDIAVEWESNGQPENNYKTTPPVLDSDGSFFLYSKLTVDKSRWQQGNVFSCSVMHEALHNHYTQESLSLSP
light: B1 light
notes: as for B18
B20: GpH7-B3 variant I332_09D/GpL16-k0 (antibody, human IgG1, kappa)
heavy: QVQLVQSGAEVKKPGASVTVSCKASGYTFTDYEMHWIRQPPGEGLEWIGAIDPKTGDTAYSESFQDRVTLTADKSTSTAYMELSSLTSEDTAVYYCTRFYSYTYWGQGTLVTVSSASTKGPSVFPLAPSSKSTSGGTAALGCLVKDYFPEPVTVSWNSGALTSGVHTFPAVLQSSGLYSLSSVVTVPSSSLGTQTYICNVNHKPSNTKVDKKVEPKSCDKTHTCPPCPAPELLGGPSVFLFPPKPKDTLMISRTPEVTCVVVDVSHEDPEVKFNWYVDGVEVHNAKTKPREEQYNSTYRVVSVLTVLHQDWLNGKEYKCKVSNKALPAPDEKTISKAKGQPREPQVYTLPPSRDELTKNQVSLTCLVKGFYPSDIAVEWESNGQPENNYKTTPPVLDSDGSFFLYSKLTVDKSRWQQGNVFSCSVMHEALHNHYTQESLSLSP
light: B1 light
notes: as for B18
B21: GpH7-B3 variant H268_09D/GpL16-k0 (antibody, human IgG1, kappa)
heavy: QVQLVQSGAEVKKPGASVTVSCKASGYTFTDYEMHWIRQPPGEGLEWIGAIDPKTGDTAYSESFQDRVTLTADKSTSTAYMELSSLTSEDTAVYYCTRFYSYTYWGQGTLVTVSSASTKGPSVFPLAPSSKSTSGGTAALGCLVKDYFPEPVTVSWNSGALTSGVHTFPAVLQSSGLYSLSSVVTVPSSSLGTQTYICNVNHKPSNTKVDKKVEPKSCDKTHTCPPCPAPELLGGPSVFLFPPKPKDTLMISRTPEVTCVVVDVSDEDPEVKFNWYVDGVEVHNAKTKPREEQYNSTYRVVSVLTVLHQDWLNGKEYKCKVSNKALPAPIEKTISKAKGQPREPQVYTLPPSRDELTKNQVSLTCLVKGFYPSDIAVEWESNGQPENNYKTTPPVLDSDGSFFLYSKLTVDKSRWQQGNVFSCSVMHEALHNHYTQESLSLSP
light: B1 light
notes: as for B18
B22: GpH7-B3 variant A330_08L/GpL16-k0 (antibody, human IgG1, kappa)
heavy: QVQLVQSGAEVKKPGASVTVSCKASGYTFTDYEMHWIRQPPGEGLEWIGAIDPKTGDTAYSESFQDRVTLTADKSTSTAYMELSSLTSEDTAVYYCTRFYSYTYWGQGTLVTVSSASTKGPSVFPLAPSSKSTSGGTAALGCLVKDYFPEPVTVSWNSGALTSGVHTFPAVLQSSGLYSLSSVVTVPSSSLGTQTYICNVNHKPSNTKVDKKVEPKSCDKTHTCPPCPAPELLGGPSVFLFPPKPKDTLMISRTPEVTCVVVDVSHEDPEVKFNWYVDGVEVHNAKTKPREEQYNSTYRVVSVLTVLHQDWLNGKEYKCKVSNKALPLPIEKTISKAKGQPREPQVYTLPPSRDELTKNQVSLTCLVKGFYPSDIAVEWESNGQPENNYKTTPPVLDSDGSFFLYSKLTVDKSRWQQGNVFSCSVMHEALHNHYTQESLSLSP
light: B1 light
notes: as for B18
B23: GpH7-B3 variant I332_10E/GpL16-k0 (antibody, human IgG1, kappa)
heavy: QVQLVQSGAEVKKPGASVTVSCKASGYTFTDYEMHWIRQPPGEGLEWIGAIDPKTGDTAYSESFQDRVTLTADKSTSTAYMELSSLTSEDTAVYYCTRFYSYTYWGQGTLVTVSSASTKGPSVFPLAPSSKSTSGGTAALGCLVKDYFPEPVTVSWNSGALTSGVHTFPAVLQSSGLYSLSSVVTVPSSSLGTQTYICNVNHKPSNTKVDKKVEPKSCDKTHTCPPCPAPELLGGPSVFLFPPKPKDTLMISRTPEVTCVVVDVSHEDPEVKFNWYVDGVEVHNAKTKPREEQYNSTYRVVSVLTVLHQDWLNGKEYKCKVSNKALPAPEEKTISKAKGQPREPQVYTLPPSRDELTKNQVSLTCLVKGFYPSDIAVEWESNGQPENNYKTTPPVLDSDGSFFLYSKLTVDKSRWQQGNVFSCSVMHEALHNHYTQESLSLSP
light: B1 light
notes: as for B18
B24: GpH7-B3 variant E333_16H/GpL16-k0 (antibody, human IgG1, kappa)
heavy: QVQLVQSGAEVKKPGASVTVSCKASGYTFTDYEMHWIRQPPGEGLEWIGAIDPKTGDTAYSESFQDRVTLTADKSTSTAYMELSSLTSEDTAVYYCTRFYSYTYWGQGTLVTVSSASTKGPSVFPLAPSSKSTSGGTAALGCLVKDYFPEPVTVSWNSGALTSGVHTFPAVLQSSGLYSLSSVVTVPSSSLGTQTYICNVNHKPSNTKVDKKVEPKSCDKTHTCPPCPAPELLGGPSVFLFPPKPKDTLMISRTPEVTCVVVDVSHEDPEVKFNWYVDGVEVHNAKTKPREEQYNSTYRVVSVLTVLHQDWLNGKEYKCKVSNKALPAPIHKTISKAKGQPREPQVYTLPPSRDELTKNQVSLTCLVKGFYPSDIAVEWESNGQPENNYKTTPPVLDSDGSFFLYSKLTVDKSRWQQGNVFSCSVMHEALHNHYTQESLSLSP
light: B1 light
notes: as for B18
B25: GpH7-B3 variant A330_20W/GpL16-k0 (antibody, human IgG1, kappa)
heavy: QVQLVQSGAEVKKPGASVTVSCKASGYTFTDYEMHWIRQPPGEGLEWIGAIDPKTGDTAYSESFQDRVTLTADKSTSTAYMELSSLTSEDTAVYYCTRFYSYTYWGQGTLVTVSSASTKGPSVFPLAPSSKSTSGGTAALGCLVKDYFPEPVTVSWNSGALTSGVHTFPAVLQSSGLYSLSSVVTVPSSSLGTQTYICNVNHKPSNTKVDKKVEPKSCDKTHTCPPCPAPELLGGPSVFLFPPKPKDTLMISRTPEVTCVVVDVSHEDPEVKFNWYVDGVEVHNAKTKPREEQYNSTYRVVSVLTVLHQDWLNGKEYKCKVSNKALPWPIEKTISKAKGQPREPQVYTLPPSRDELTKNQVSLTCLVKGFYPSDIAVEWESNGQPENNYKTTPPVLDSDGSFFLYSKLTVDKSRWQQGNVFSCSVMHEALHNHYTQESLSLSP
light: B1 light
notes: as for B18
B26: GpH7-B3 variant I332_02A/GpL16-k0 (antibody, human IgG1, kappa)
heavy: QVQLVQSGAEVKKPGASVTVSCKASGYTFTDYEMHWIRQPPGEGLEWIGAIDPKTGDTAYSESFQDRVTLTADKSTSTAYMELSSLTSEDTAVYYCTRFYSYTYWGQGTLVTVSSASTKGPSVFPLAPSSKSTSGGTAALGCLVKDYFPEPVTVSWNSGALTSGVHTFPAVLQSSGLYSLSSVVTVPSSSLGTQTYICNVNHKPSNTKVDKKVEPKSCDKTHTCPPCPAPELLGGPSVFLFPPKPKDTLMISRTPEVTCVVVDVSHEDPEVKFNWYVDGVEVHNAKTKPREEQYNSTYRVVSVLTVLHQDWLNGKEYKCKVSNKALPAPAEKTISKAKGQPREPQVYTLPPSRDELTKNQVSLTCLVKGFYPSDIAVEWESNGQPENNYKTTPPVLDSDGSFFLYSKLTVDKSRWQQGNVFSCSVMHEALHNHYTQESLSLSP
light: B1 light
notes: as for B18
B27: GpH7-B3 variant H268_13S/GpL16-k0 (antibody, human IgG1, kappa)
heavy: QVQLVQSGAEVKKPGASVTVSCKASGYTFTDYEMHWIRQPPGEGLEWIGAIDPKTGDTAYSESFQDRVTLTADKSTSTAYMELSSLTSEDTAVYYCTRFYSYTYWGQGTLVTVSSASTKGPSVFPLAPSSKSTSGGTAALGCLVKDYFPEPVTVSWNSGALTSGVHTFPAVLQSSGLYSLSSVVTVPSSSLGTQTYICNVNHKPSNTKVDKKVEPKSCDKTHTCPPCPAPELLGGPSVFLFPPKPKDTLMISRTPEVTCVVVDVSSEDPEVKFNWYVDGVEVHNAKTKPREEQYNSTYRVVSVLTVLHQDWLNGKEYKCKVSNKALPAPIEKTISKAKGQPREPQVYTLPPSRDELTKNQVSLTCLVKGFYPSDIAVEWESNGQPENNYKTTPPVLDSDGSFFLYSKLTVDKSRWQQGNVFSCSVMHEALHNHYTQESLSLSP
light: B1 light
notes: as for B18
B28: GpH7-B3 variant A330_04F/GpL16-k0 (antibody, human IgG1, kappa)
heavy: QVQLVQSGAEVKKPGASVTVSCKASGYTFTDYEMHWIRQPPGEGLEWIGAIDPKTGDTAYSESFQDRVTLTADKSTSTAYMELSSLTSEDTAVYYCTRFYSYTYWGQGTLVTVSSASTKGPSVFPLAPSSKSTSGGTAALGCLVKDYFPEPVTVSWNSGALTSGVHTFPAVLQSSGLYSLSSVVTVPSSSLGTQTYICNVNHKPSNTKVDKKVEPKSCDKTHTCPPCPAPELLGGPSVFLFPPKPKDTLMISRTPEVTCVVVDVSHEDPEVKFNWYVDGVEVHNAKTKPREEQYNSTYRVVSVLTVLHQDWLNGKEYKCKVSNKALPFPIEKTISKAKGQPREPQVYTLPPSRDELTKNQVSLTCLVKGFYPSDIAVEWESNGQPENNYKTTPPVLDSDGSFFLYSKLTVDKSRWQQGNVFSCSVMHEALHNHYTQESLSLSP
light: B1 light
notes: as for B18
B29: GpH7-B3 variant I332_01G/GpL16-k0 (antibody, human IgG1, kappa)
heavy: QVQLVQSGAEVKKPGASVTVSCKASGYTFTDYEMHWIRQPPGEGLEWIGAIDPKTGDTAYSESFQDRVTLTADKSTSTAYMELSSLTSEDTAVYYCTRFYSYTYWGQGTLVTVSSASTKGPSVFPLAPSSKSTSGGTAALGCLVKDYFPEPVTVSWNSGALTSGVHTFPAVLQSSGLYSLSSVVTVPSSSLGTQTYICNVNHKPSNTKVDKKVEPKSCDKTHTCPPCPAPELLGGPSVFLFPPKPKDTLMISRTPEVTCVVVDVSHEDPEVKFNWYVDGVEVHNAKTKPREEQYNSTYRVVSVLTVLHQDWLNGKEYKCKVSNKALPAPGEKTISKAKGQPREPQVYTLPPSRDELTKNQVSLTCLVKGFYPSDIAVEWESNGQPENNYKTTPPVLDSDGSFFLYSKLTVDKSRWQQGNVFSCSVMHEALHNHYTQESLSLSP
light: B1 light
notes: as for B18

biological target: T1, FcγRIIb extracellular domain with …; assay: SPR (Biacore), captured antibody, FcγRIIb analyte; binding relative to GpH7-A5/GpH7-B3/GpL16-k0 = 100

| Binder | He/Con_2b |
| --- | --- |
| B1 | 147 % of control |
| B2 | 114 % of control |
| B3 | 119 % of control |
| B4 | 108 % of control |
| B5 | 312 % of control |
| B6 | 251 % of control |
| B7 | 101 % of control |
| B8 | 107 % of control |
| B9 | 139 % of control |
| B10 | 177 % of control |
| B11 | 125 % of control |
| B12 | 210 % of control |
| B13 | 115 % of control |
| B14 | 165 % of control |
| B15 | 144 % of control |
| B16 | 218 % of control |
| B17 | 106 % of control |

biological target: T2, FcγRIIIa extracellular domain with C-terminal His tag (human, UniProt P08637 17-208); assay: SPR, relative to GpH7-B3/GpL16-k0
T2 construct: extracellular domain; also called FcgRIIIa; 3a
T2 sequence (P08637 17-208): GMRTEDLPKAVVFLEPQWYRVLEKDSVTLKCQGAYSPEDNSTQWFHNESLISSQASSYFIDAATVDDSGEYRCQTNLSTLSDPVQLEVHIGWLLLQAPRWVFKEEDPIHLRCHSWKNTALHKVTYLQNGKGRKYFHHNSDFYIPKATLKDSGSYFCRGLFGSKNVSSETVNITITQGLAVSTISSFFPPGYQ

| Binder | Ho/Con_3a |
| --- | --- |
| B18 | 104 % of control (=100) |
| B19 | 2060 % of control (=100) |
| B20 | 255 % of control (=100) |
| B21 | 220 % of control (=100) |
| B22 | 138 % of control (=100) |
| B23 | 278 % of control (=100) |
| B24 | 111 % of control (=100) |
| B25 | 118 % of control (=100) |
| B26 | 114 % of control (=100) |
| B27 | 130 % of control (=100) |
| B28 | 174 % of control (=100) |
| B29 | 104 % of control (=100) |
